In US20230151073A1, “FIBRILLATION RESISTANT CALCITONIN PEPTIDES AND USES THEREOF” (Purdue Research Foundation, priority 2020, published 2023):

How the values were obtained:
[1] = Fibrillation kinetics by turbidity measurement (UV absorbance at 340 nm); assay type: physicochemical; conditions: 100 μM peptide, 731 cpm
Description: Fibrillation kinetics of hCT, rhCT and phCT was followed by measuring the increase in solution turbidity due to formation of soluble oligomeric species and insoluble fibrils. […] At each time point, six replicate measurements were performed for each sample. Fibrillation was carried out for 12 or 24 h at 25° C. with continuous shaking at 731 cpm. Solution turbidity was measured by UV absorbance at 340 nm at 10 or 15-min read intervals. The turbidity data was fitted to the Boltzmann sigmoidal function (Eq. 1) and analyzed as described above.

[2] = Fibrillation kinetics by Thioflavin-T (ThioT) fluorescence measurement; assay type: physicochemical; conditions: 100 μM peptide
Description: The fibrillation kinetics of hCT, rhCT and phCT was monitored by measuring the increase in fluorescence intensity upon thioflavin T (ThioT) binding to peptide fibrils. The ThioT stock solution (2.5 mM) was prepared in di-water and diluted 10-fold with buffer to give a working solution (250 μM). […] The peptide solution was quickly transferred to a 96-well microtiter plate and placed in a Synergy Neo2 Multi-Detection microplate reader (BioTek Instruments, Winooski, Vt.). 5 μL of ThioT working solution (250 μM) was added to 245 μL of peptide solution in each well to give a final ThioT concentration of 5 μM per well. At each time point, six replicate measurements were performed for each sample. Fibrillation was carried out for 12 or 24 h at 25° C. with continuous shaking at 731 cpm. The fluorescence intensity of ThioT was bottom-read at an interval of 10 or 15 min, at excitation and emission wavelengths of 440 nm and 482 nm, respectively.
The ThioT fluorescence data were fitted to the Boltzmann sigmoidal function as given below, using GraphPad Prism version 7.03 (GraphPad Software, La Jolla, Calif.).
where A1 is the minimum signal, A2 is the maximum signal, xo is the time at which the change in signal is 50% (t50) and dx′ is the slope of growth phase.^1 The lag time was determined either by sigmoidal fit to the fibrillation kinetics curve or using onset point determination. In sigmoidal fits, the lag time was determined as xo−2 dx′ using parameters obtained from nonlinear fit of the data to Eq. 1. […] In cases where sigmoid curve fitting could not be achieved, the t50 was estimated from the raw data as the time when the signal intensity reached half of the observed maximum value.

[3] = Visual inspection of 96-well plates after fibrillation; assay type: physicochemical; conditions: after fibrillation in 96-well plates, 24 h
[4] = Secondary structure change during fibrillation by CD spectroscopy; assay type: physicochemical; conditions: 0 to 1440 min, 100 μM peptide, pH 7.4, 25° C., 731 cpm
Description: Changes in the secondary structure of hCT and phCT were monitored by CD spectroscopy using a Jasco J-815 spectrometer (JASCO Analytical Instruments, Easton, Md.). […] At predetermined time intervals, samples were withdrawn for CD analysis. CD spectra were recorded in a quartz cuvette with 1 mm pathlength, scanned from 190 nm to 260 nm in the far UV range, at a scan speed of 50 nm/min at 20° C. Each spectrum was reported as an average of three scans.

[5] = after 360 min of fibrillation time
[6] = after 1440 min of fibrillation, pepsin digestion
[7] = 20 mM sodium phosphate buffer pH 7.4, 25° C., n=6, mean±SD
[8] = 20 mM sodium phosphate buffer pH 7.4, 25° C., continuous shaking at 731 cpm, n=6, mean±SD

Substance: human calcitonin [hCT]
- deuterium incorporation, fragment 1-8 [5]: 16%
- deuterium incorporation, fragment 1-11 [5]: 13%
- deuterium incorporation, fragment 12-19 [5]: 22%
- percent deuterium uptake, intact level (after 1440 min of fibrillation): 28%
- deuterium uptake, fragment 20-32 [6]: 51%
- deuterium uptake, fragment 26-32 [6]: 54%
- % D (percent deuterium uptake), intact level, Peak II (fibrillation time t=0 min): 68%
- deuterium uptake, C-terminal fragments 20-32 and 26-32, initial value (start of fibrillation): ~60%
- lag time of fibrillation, turbidity [1, 7]: 198 ± 20 min
- t50 of fibrillation, turbidity [1, 7]: 257 ± 15 min
- change in turbidity signal ([1]; pH 7.4, 25° C.): An increase in solution turbidity was also observed
- lag time of fibrillation, ThioT fluorescence [2, 8]: 172 ± 15 min
- t50 of fibrillation, ThioT fluorescence [2, 8]: 236 ± 8 min
- lag time of fibrillation, ThioT fluorescence ([2]; 20 mM sodium phosphate buffer pH 7.4, 25° C., continuous shaking at 731 cpm, n=6, mean±SD, listed as native hCT): 172 ± 15 min
- change in ThioT fluorescence with time ([2]; pH 7.4, 25° C., 731 cpm): an increase in ThioT fluorescence was observed
- appearance on visual inspection [3]: solid dense deposits
- change of CD signal during fibrillation [4]: complete loss in signal
